# Measured values as given in IntAct's records for PubMed 11565033.
# B1: F-box/WD repeat-containing protein 7 (Drosophila melanogaster (Fruit fly)), Q9VZF4 (parent)
# chain: MERGCPAASSESVTSAGERTQSAVTSSTSTWVKSQASTSRKTEASEESGLGAVDAEVGAGREAFVSMSTLREDVEDVCVSSNSQHGFAVVLDDESSTFEISSSNSLPTSAGAASTVGVVAVDDSSSTDTLNGGHPDLGHPASSEHSRQGFFNEDNEDPPVVCLINDDDDDEEPEPEEDDEEELIEDEDEDAVDIVTGAISCPNTSQLALADGTIMAADGSKIFLETPVVEEAQPHPGQVVTTGSQSELTGKPKRLSDEFLLGEEDQAENLALGRCIKSEPVNPVDDNPSEGDDGATCFSLHDRLMSVRLKQMSLTANTVSNPSPAASANAAAPEEASTSNSSSTSSSALSRADIESMDLIERRDFETEQRLTGGIILRTSSMVSQNKLNLSLIKSMAGGSKAANGSGTANSDDWPSSSNGRTVSSDSKYTYKDLSTTPTSSRKYTNSRLSKSTAKLNLGSSLGASSCSQHRSGSSSTSKSMESSTSCTGAARTDVYTNTNSNDYPSLAPTTSGSSTSGGSCQQDQEENVSASVSYSSVGSQTSQESGCSRTTAINPTAACSTGSACLGDSQASTSASTSSGAGASNRCQYATTSTTKAARQVNASAQTQERFLTRSNPPAASGAGSVGANPTASVRQRRNGSSDVVHLEVVVEEGAGGGDGGVVEPGDFSAEEPWANCDEENNCSDLEEICTCQNGNGSSYGGSNASLSETFDMDAMDPDEPISLSLSSASAGFTEYSLTNPSSLMSHQRKRKFNEGRLLDGGDYSVTISSSGEVGGPGSGVSDNCRKRIAYDFASTPRSSQHLGPTAVLSVTPSSHLTSSTPGSALGRRTPRSVPSRDNPPPELQHWLAQFQRWSHVERLLALDRLIDHCDPSQVRHMMKVIEPQFQRDFISLLPRELALFVLSYLEPKDLLRAAQTCRSWRFLCDDNLLWKEKCRKAQILAEPRSDRPKRGRDGNMPPIASPWKAAYMRQHIIEMNWRSRPVRKPKVLKGHDDHVITCLQFSGNRIVSGSDDNTLKVWSAVNGKCLRTLVGHTGGVWSSQMSGNIIISGSTDRTLKVWDMDSGACVHTLQGHTSTVRCMHLHGSKVVSGSRDATLRVWDIEQGSCLHVLVGHLAAVRCVQYDGKLIVSGAYDYMVKIWHPERQECLHTLQGHTNRVYSLQFDGLHVVSGSLDTSIRVWDVETGNCKHTLMGHQSLTSGMELRQNILVSGNADSTVKVWDITTGQCLQTLSGPNKHHSAVTCLQFNSRFVVTSSDDGTVKLWDVKTGDFIRNLVALDSGGSGGVVWRIRANDTKLICAVGSRNGTEETKLMVLDFDVEGACVKCS
# partner: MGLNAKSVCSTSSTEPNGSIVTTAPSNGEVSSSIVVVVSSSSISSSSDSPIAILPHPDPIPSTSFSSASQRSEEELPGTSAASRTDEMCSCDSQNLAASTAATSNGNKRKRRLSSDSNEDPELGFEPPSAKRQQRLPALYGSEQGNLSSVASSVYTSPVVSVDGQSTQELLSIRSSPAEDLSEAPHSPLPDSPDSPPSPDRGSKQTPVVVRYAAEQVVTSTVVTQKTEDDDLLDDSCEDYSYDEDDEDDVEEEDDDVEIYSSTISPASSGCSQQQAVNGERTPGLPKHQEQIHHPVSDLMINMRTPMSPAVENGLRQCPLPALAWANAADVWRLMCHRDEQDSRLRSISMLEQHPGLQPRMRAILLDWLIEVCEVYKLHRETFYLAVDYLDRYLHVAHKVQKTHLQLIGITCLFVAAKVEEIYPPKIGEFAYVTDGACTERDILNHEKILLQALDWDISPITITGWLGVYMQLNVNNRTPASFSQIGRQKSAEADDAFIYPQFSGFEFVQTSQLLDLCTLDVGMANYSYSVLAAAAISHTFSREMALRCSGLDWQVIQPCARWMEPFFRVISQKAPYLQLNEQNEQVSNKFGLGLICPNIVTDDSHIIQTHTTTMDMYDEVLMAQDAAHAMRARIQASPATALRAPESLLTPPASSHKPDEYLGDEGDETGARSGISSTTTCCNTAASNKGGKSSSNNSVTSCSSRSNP
# Variants of: B1
# Details: with ccne_drome CycE
row,Variant,effect of a mutation on the interaction
1,G1131E,decreasing interaction
